# Test: yeast display, Sf9 membrane polyspecificity reagent, FACS + sequencing; frameworks hold sequencing errors
# Method in brief: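 Sorting gates, low and high (top ~1%), were placed on anti-HA fluorescence to track expression and on streptavidin fluorescence to track reagent binding. A clone's polyreactivity label is taken from the gate it came out of. The reagent was 10% biotinylated, detergent-solubilized Sf9 membrane, applied for 1 hour at 4 °C to galactose-induced yeast display cells.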
row,Sequence,polyreactivity (PSR sort gate)
1,QVQLVESGGGLVQAGGSLRLSCAASGFIFFINDMGWYRQAPGKERELVAAISWSGGSTYYADSVKGRFTISRDNAKNTVYLQMNSLKPEDTAVYYCNTDVPTAQYDYWGQGTQVTVSS,low polyreactivity
2,QVQLVESGGGLVQEGGSLCLSCAASGIFVYNAMGWYRQAPGKEREFVAAINKSGASTFYADSVKGRFTISRDNAKNTVYLQMNSLKPEDTAVYYCNAGTLYYRYRWGHYYDSWGQGTQVTVSS,low polyreactivity
3,QVQLVESGGGLVQAGGSLRLSCAASGINFVRNAMGWYRQAPGKERELVAAITGRGVSTYYADSVKGRFTISRDNAKNTVYLQMKSLKPEDTAVYYCAARYSSRGTYPRRYDYWGQGTQVTVSS,high polyreactivity
4,QVQLVESGGRLVQAGGSLRLRGAASGNTNIPNAMGWYRQAPGKERELLAAIRASGGSTYYADSVKGRFTISRDNAKNTVYFQLNSLKTEDTSVYYCNADIWYKTYDYWGQGTQVTVSS,low polyreactivity
5,QVQLVESGGGLVQAGGSLRLSCAAYGFTFIYYAMGRYRQAPGKERELVAAISRRGGSTYYADSVKGRFTISRDNAKNTVYLQMNSLKPEDTAVYYCAAYTLNTRYDYWGQGTQVTVSS,high polyreactivity
6,QVQLVESGGGLVQAGGSLRLSCAASGSIFRYYAMGWYRQAPGKEREFVAAISASGGSTYYADSVKGRFTISRDNAKNTVYLQMNSLKPEDTAVYYCAARYSYRRPGGYPFGSWGQGTQVTVSS,high polyreactivity
7,QVQLVESGGGLVQAGGSLRLSCAASGLIFWHYAMGWYRQAPGKERELVAAISRRGGSTYYADSVKGRFTISRDNAKNTVYLQMNSLKPEDTAVYYCAADVWGSSAQRGWRKDYYWGQGTQVTVSS,high polyreactivity
8,QVQLVESGGGLVQAGGSLRLSCAASGRIFDYYAMGWYRQAPGKERELVAAITVRGGTTYYADSVKGRFTISRDNAKNTVDLQMNSLKPEDTAVYYCAASDRRRYYYWGQGTQVTVSS,high polyreactivity
9,QVQLVESGGGLVQAGGSLSLSCAASGFTVKFYAMGWYRQAPGKERELVATISSRGTSTYYADSVKGRFTISRDNAKNTVYLQMNSLKPEDTAVYYCAAAWFPAYQYRYYYWGQGTQVTVSS,high polyreactivity
10,QVQLVESGGGLVQAGGSLRLSCAASGRTIPTYVMGWYRQAPGKERELVASIRSGGRTKYADSVKGRFTISRDNAKNTVYLQMNSLKPEDTAVYYCAADYHGSPEYDYWGQGTQVTVSS,low polyreactivity
11,QGQLVESGGGLVQAGGSLRLSCAASGRTLYYYAMGWYRQAPGKERELVAAISGGGRTYYADSVKGRFTISRDNAKKTVDLQMNSLKPEDTAVYYCAARYRKSGLDNYWGQGTQVTVSS,high polyreactivity
12,QVQLVESGGGLVQAGGSLRLSCAPSGFIFYGYAMGWYRPAPGKERELVAAISRRGGSTYYADSVKGRFTISRDDAKNSVYLQMNSLKPEDTAVYYCAATYEVNYRKYGYWGQGTQVTVSS,high polyreactivity
13,QVQIVESGGGLLQAGGSLRLSCAASGRIFRRNAMGWYRQATGKERELVAAISKSGGSTYYADSVKGRFTISRDNAKNTVYLQMNSLKPEDTAVYYCAAEYSDRYDYWGQGTQVTVSS,high polyreactivity
14,QVQLVESGGGLVQAGGILRLSCAASGRTFVLNAMGRYRQAPGKERELVAAITSGGSTYYADSVKGRFTISRDNAKNTVYLQMNMLKPEDTAVYYCAVTYKGDSSWPGDYWGQCTQVTVSS,low polyreactivity
15,QVQLVESGGGLVQAGGSLRLSSAASGFTFRRYAMGWYRQAPGKERELVAAITNSAGSTYYSDSVKGRFTISRDNAKNTVYLQKNSLKPEDTAVYYCVALRSAGAYDYWGQGTQVTVSS,low polyreactivity
16,QVQLVESGGGLVQAGGSLRLSCAASGITFYYYAMGWYRQAPGKLRELVARINSGGSTNYADSVKGRFTISRDNAKNTVYLQMNSLKPEDTAVYYCNAKFRFGTYKTPYDYWGQGTQVTVSS,low polyreactivity
17,QVQIVESGGGLVQAGGSLRLSCAASGSIFYRNAMGWYRQAPGKERELVAAISSDGSTNYADSVKGRFTISRDNAKNTVYLQMNSLKPEDTAVYYCAAPWTQILDYWGQGTQVTVSS,low polyreactivity
18,QVQLVESGGGLVQAGGSLRLSCAAYGSIFGSNAIGCYIQAPGKERELVAAISSGSTYYADTVKGRFTISRDNAKNTVYLQMNSLKPEDNAVYYCNARSLLYEFDYWGQGTQVTVSS,low polyreactivity
19,QVQLVESGGGLVQAGGSLRLSCAASGRTFWYNAMGWYRQAPRKERELVAAISSGSSTKYADSVKGRFTISRDNAKNTVYLQMNSLKPEDTAVYYCARGGWAYCPRYNYWGQGTQVTVSS,high polyreactivity
20,QVQLVESGGGLVQAGGSLRLSCAASGLTYYYYAKGWYRQAPGKERDFVAAISRSGGTTYYADSVKGRFTISRDNAKNTDYLQMNSLKPEDTAVYYCNAQWWRYRPSQVIFDYWGQGTQVNVSS,high polyreactivity
21,QVHLVESGGGLVQAGGSHRLSCAAYGRIFRANAKGWYRQAPGKERELVASITYSGGSTYYADSVKGRFTISRDNAKNTVYLQMNSLKPEDTAVYYCARAGISSGGYYYWGQGTQVTVSS,low polyreactivity
22,QVQLVESGGGLVQAGGSLRLSCAASGRTFYGNGMGWYRQAPGKDRELVAAISWSGGSTYYADSVKGRFTISRDNAKNTVYLQMNSLKPEDTAVYYCAAAYRSFIIGRWYDYWGQGTQVTVSS,low polyreactivity

row,Sequence,polyreactivity (PSR sort gate)
1,QVQHVESGGGLVQAGGSLRLSCAASGFIFSSYAIGWYRQAPGKEREFVASIRRRGGSTYYAYSVKGRFTISRDNAKNTVILQMNRLIPEDTAVYYCAREVYRHFAPVGYDYWGQGTQVTVSS,high polyreactivity
2,QVQLVESGGGLVQAGCSLRLSCAASGRIITRYPMGWYRQAPGKERELVAAISYGGGGTYYADSVKGRFTISRDNAKNTVYLQMNSLKPDDTAVYYCATDDPLSQINEQGMDYWGQGTQVTVSS,low polyreactivity
3,QVQLVESGGGLVQAGGSLRLSCAASGLTFYHYDMGWYRQAPGIETELVAAITNGGSTYYADSVKGRFTISRDNAKNTVYLQMNSLKPEDTAVYYCAADGSGYYDWYYYWGQVTQVTVSS,low polyreactivity
4,QDQLVESGGGLVQAGGSLRLSCAASGNIFCYYVMGWYRQAPGKERELVAAITWSGGTTNYADSVKGRFTISRDNAKNTVYLQMNSLKPDDTAVYDCATDRYAYKLYDYWGQGTQVTVSS,low polyreactivity
5,QVQLVESGGGLVQAGGRLRLSCAASGSTIGYYTMGWYRQAPGKERELVAAISWSGDSTYYADSVKGRFTISRDNAKNTVYLQMNSLKPEDTAVYYCAKVHYVRRGDSRYDYWGQGTQVTVSS,high polyreactivity
6,QVQLVESGGGFVQAGGSLRLSCAASGRICGYYAMGWFRQAPGKERELVAAISSSGGSTYYADSVKGRFTISRDTAKNTVYLQINSQKPEYTAVYYCNVDWYDNGYGGYDYWRQGTQVTVSS,low polyreactivity
7,QVQLVESGGGLGQAGGSLRLSCAASGLIFSPYDMGWYRQAPGKERELVGAISNGDSTNYADSVKGRFTISRDNAKNTVYLQMNSLKAEDTAVYYCNAAIPSWLEYEYWGQGTQVTVSS,low polyreactivity
8,QVQLVESGGGLVQAGGSLRLRCAASGSTIVQYDMGWYRQAPGKERELVAAISRTGSTYYADSVKGRFTISRDNAKNTVYLQINSLKPEDTAVYYCNAEFWRGTYRFGYWGQGTQVTVSS,low polyreactivity
9,QVHLVESGGAIVQAGGSLRLSCAASGYIFDRNAMAWYRQAPGKERELVAAITKRGGITYYADSVKGRFTISRDNAKNTVYLQMNSLKAEDTAVYYCNALARSSRYDYWGKGTQVTVSS,low polyreactivity
10,QVQLVESGGGIVQAGGSLRLSCAASGITFAFYDMGWYRQAPGTERELVAAISYSGGGTYYADSVKGRFTISRDNAKNTVYLQMNSLKPEDTAVYYCAADPKTHPLFGEDYWGQGTQVTVSS,low polyreactivity
11,QVQLVESGVRLVQAGGRLRLSCAASGRIFDHNAMGWYRQAPGKERELVAAIDSGTSTNYADSVKGRFTISRDNAKNTVYLQMNSLKPEDTAVYYCARLLGPVRHKYDYDYWGQGTQVTVSS,low polyreactivity
12,QVQLVESGGGLVQAGGSLRLSCAASGSIFPDYAMGWYRQAPGKERELVAAITWRDDSSYYADSVKGRFTISRDNAKNTVYLQMNSLKPEDTAVYYCNASALDPLYAKDDYWGQGTQVTVSS,low polyreactivity
13,QVQLVESGGGLVQAGGSLRLSCAASGSTFGYNGLGWYRQAPGKERELVAAISGGARTYADSVKGRFTISRDNAKNTVYLQMNSLKPEDTSVYYCAADSPVSVTADDGYWGQGTQVTVSS,low polyreactivity
14,QVQLVESGGGLVQAGGRLRLSCAASGRTFGVYAMGWYRQSPGKEREFVGVISWSDDSTYYADSVKGRFTISRDNAKNTVYLQMNSLKPEDTAVYYCNADDYLVYSGSHYGYWGQGTQVTVSS,low polyreactivity
15,QVQLVESGGGLVQAGGSLRLRCAASGRIFGVYVMGWYRQAPGKESEFVAAISWSGSHTYYADSVKGRFTISRYNAKNTVYLQMNSLKPEDTAVYYCNADSYPDYTGPGLDWYDFWGQGTQVTVSS,low polyreactivity
16,QVQLVETGGGLVQAGVSLRLSSAASGITIGKNAMGWYRQEPGKESELVAAITRDGGTNYADSVKGRFTISRDNSKNTVYLQMNRLKPEDTAVYYCAKRAYFYYGRYDYWGQGTQVTVSS,low polyreactivity
17,QVQLVESGGGLVQAGGSLRLSCAASGSTFVIYTMGWCRQAPGKERELVAAISWSGGITRYADSVKGRFTISRDNAKNTVYLQMNSLKPEDTAVYYCNASQWPSLFDYWGQGTQVTVSS,low polyreactivity
18,QVQLVESGGGLVQAGGSLRLICAASGRTFYRYAMGWYRQAPGKERELVAAISRSGTTYYADSVKGRFTISRDNAKNTVYLQMNSLKPEDTAVYYCAAKPAGRQRGGDYWGQGTQVTVSS,high polyreactivity
19,QVHLVESGGGLVQPGGSLRLSCAASGFPFYINAMGWYRQAPGTERELVAAITIGSTTYYADSVKGRCTISRDNAKNTVYLQMNSLKPEDTAVYYCAAEVWRDYTSRLYDYWGQGTQVTVSS,low polyreactivity
20,QVQLVESGGGLVQAGGSLRLSCAASGSTFYINAMGWYRQAPGKERELVADITVRGGNTYYADSVKGRFTISRDNAKNTVYLQMNSLKPEDTAVYYCNALLSGGRAGFDYWGQVTQVTVSS,high polyreactivity
21,QVQLVESGGGLVQAGGSLLLSSAASGINFGNYAMGWYRQAPGKERELVATIDSAGSPYYADSVNGRFTISRDNAKNTVYLQMNSLKPEDTAVYYCAVRFGTYGRYFGYDYWGQGTQVTVSS,high polyreactivity

# Source: the nanobody polyreactivity screen of Harvey et al. (2022)
